Laboratory results published in the supplement of paper PMC10567573.

B1: BCL2L13 (parent)
chain: MASSSTVPLGFHYETKYVVLSYLG

Variants of: B1
Assay: protein stability index of a GFP-peptide fusion (GPS, HEK-293T) (PSI 1-6); higher = more stable
Conditions: c terminus: a fixed tail appended
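Note: lentivirally expressed fusions sorted by FACS into six bins by GFP to DsRed ratio, PSI derived from sequencing read proportions per bin multiplied by bin number.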

First: MASSSTVPLGFHRETKYVVLSYLG
Second: MASSSTVPLGFHWETKYVVLSYLG
The protein stability index of the first is lower: 1.85 for the first, 2.16 for the second.

Compared with MASSSTVPLGFHTETKYVVLSYLG, MASSSTVPLGFHSETKYVVLSYLG is lower in protein stability index: 2.28 for the first, 2.07 for the second.

Compared with MASSSTVPLGFHVETKYVVLSYLG, MASSSTVPLGFHYEPKYVVLSYLG is lower in protein stability index: 2.51 for the first, 2.06 for the second.

First: MASSSTVPLGFHYEYKYVVLSYLG
Second: MASSSTVPLGFHYEVKYVVLSYLG
The protein stability index of the first is lower: 2.75 for the first, 3.06 for the second.

Compared with MASSSTVPLGFHYERKYVVLSYLG, MASSSTVPLGFHYEAKYVVLSYLG is higher in protein stability index: 1.36 for the first, 1.86 for the second.

First: MASSSTVPLGFHYENKYVVLSYLG
Second: MASSSTVPLGFHYEHKYVVLSYLG
The protein stability index of the first is lower: 1.75 for the first, 1.91 for the second.

Compared with MASSSTVPLGFHYEEKYVVLSYLG, MASSSTVPLGFHYEIKYVVLSYLG is higher in protein stability index: 2.61 for the first, 3.13 for the second.

Compared with MASSSTVPLGFHYEMKYVVLSYLG, MASSSTVPLGFHYELKYVVLSYLG is lower in protein stability index: 2.79 for the first, 2.1 for the second.

First: MASSSTVPLGFHYEFKYVVLSYLG
Second: MASSSTVPLGFHYEGKYVVLSYLG
The protein stability index of the first is higher: 1.5 for the first, 1.34 for the second.

Compared with MASSSTVPLGFHYEKKYVVLSYLG, MASSSTVPLGFHYEQKYVVLSYLG is higher in protein stability index: 1.4 for the first, 2.84 for the second.

Going from MASSSTVPLGFHYESKYVVLSYLG to MASSSTVPLGFHYECKYVVLSYLG, the protein stability index rises from 1.11 to 1.71.

Compared with MASSSTVPLGFHYEDKYVVLSYLG, MASSSTVPLGFHYEWKYVVLSYLG is higher in protein stability index: 2.03 for the first, 2.05 for the second.

First: MASSSTVPLGFHYRTKYVVLSYLG
Second: MASSSTVPLGFHYYTKYVVLSYLG
The protein stability index of the first is lower: 2.14 for the first, 2.64 for the second.

First: MASSSTVPLGFHYMTKYVVLSYLG
Second: MASSSTVPLGFHYHTKYVVLSYLG
The protein stability index of the first is higher: 3.1 for the first, 1.75 for the second.

Going from MASSSTVPLGFHYDTKYVVLSYLG to MASSSTVPLGFHYPTKYVVLSYLG, the protein stability index falls from 2.67 to 2.24.

Going from MASSSTVPLGFHYSTKYVVLSYLG to MASSSTVPLGFHYWTKYVVLSYLG, the protein stability index rises from 2.62 to 3.62.

First: MASSSTVPLGFHYGTKYVVLSYLG
Second: MASSSTVPLGFHYNTKYVVLSYLG
The protein stability index of the first is lower: 2.09 for the first, 2.48 for the second.

First: MASSSTVPLGFHYITKYVVLSYLG
Second: MASSSTVPLGFHYFTKYVVLSYLG
The protein stability index of the first is higher: 2.82 for the first, 1.81 for the second.

First: MASSSTVPLGFHYTTKYVVLSYLG
Second: MASSSTVPLGFHYATKYVVLSYLG
The protein stability index of the first is higher: 2.3 for the first, 2.21 for the second.

Compared with MASSSTVPLGFHYVTKYVVLSYLG, MASSSTVPLGFHYQTKYVVLSYLG is higher in protein stability index: 2.46 for the first, 3.35 for the second.

Compared with MASSSTVPLGFHYKTKYVVLSYLG, MASSSTVPLGFHYETKAVVLSYLG is lower in protein stability index: 2.72 for the first, 2.67 for the second.

Compared with MASSSTVPLGFHYETKGVVLSYLG, MASSSTVPLGFHYETKEVVLSYLG is lower in protein stability index: 2 for the first, 1.86 for the second.

First: MASSSTVPLGFHYETKFVVLSYLG
Second: MASSSTVPLGFHYETKCVVLSYLG
The protein stability index of the first is higher: 3.51 for the first, 2.48 for the second.

Going from MASSSTVPLGFHYETKPVVLSYLG to MASSSTVPLGFHYETKTVVLSYLG, the protein stability index falls from 1.95 to 1.62.

Going from MASSSTVPLGFHYETKMVVLSYLG to MASSSTVPLGFHYETKRVVLSYLG, the protein stability index falls from 3.56 to 1.66.

First: MASSSTVPLGFHYETKLVVLSYLG
Second: MASSSTVPLGFHYETKQVVLSYLG
The protein stability index of the first is higher: 2.22 for the first, 1.84 for the second.

Compared with MASSSTVPLGFHYETKNVVLSYLG, MASSSTVPLGFHYETKKVVLSYLG is higher in protein stability index: 1.62 for the first, 2.1 for the second.

First: MASSSTVPLGFHYETKHVVLSYLG
Second: MASSSTVPLGFHYETKDVVLSYLG
The protein stability index of the first is higher: 1.95 for the first, 1.73 for the second.

Going from MASSSTVPLGFHYETKSVVLSYLG to MASSSTVPLGFHYETKYVALSYLG, the protein stability index rises from 1.66 to 1.99.

Going from MASSSTVPLGFHYETMYVVLSYLG to MASSSTVPLGFHYETVYVVLSYLG, the protein stability index falls from 2.61 to 2.53.

Compared with MASSSTVPLGFHYETQYVVLSYLG, MASSSTVPLGFHYETSYVVLSYLG is higher in protein stability index: 2.6 for the first, 2.81 for the second.

Going from MASSSTVPLGFHYETNYVVLSYLG to MASSSTVPLGFHYETLYVVLSYLG, the protein stability index falls from 3.56 to 2.04.

Compared with MASSSTVPLGFHYETWYVVLSYLG, MASSSTVPLGFHYETYYVVLSYLG is higher in protein stability index: 2.56 for the first, 3.26 for the second.

Compared with MASSSTVPLGFHYETCYVVLSYLG, MASSSTVPLGFHYETPYVVLSYLG is lower in protein stability index: 4.41 for the first, 1.83 for the second.

Compared with MASSSTVPLGFHYETIYVVLSYLG, MASSSTVPLGFHYETHYVVLSYLG is lower in protein stability index: 2.74 for the first, 1.46 for the second.

Compared with MASSSTVPLGFHYETRYVVLSYLG, MASSSTVPLGFHYETEYVVLSYLG is higher in protein stability index: 2.55 for the first, 4.22 for the second.

Compared with MASSSTVPLGFHYETDYVVLSYLG, MASSSTVPLGFHYETFYVVLSYLG is lower in protein stability index: 3.26 for the first, 2.32 for the second.

Going from MASSSTVPLGFHYETGYVVLSYLG to MASSSTVPLGFHYETAYVVLSYLG, the protein stability index rises from 2.38 to 2.64.

First: MASSSTVPLGFHYETKYFVLSYLG
Second: MASSSTVPLGFHYETKYGVLSYLG
The protein stability index of the first is higher: 3.21 for the first, 1.53 for the second.

Going from MASSSTVPLGFHYETKYTVLSYLG to MASSSTVPLGFHYETKYNVLSYLG, the protein stability index falls from 2.88 to 1.56.

First: MASSSTVPLGFHYETKYHVLSYLG
Second: MASSSTVPLGFHYETKYWVLSYLG
The protein stability index of the first is higher: 1.88 for the first, 1.84 for the second.

Compared with MASSSTVPLGFHYETKYSVLSYLG, MASSSTVPLGFHYETKYDVLSYLG is higher in protein stability index: 1.79 for the first, 1.89 for the second.

Compared with MASSSTVPLGFHYETKYIVLSYLG, MASSSTVPLGFHYETKYRVLSYLG is lower in protein stability index: 2.81 for the first, 1.88 for the second.

Compared with MASSSTVPLGFHYETKYEVLSYLG, MASSSTVPLGFHYETKYYVLSYLG is higher in protein stability index: 2.02 for the first, 2.6 for the second.

Going from MASSSTVPLGFHYETKYKVLSYLG to MASSSTVPLGFHYETKYPVLSYLG, the protein stability index falls from 2.31 to 1.91.

Going from MASSSTVPLGFHYETKYMVLSYLG to MASSSTVPLGFHYETKYQVLSYLG, the protein stability index falls from 2.55 to 1.37.

First: MASSSTVPLGFHYETKYAVLSYLG
Second: MASSSTVPLGFHYETKYLVLSYLG
The protein stability index of the first is higher: 2.24 for the first, 1.88 for the second.
